Data as given in FireProtDB (doi:10.1021/bi00236a021).
Several values for one entry are separate records, joined by “and”; a condition that tells them apart may be missing. Identical values can stand only once.

Details: Escherichia coli (strain K12), whole UniProt chain shown
[1] = pH 7, Thermal, CD, Potassium phosphate 10 mM
[2] = pH 8, 30 °C, GdnHCl, Fluorescence, Tris-HCl 50 mM

B1: Glutaredoxin 1 wild type, P68688 (protein)
chain: MQTVIFGRSGCPYCVRAKDLAEKLSNERDDFQYQYVDIRAEGITKEDLQQKAGKPVETVPQIFVDQQHIGGYTDFAAWVKENLDA
unfolding free energy (pH 7, 25 °C, Thermal, CD, Potassium phosphate 10 mM): 4.7 kcal/mol | unfolding free energy (pH 7, 30 °C, Thermal, CD, Potassium phosphate 10 mM): 4.1 kcal/mol and 5 kcal/mol | Tm [1]: 55 °C and 57 °C | unfolding enthalpy (van 't Hoff) [1]: 67 kcal/mol and 75 kcal/mol | denaturant midpoint (higher = more stable) [2]: 2 M | unfolding free energy [2]: 4.2 kcal/mol and 6.1 kcal/mol
